Read-outs that look alike come from different tables or passages of the source.
B1: VEGF mini-trap of SEQ ID NO:26 (receptor)
chain: SDTGRPFVEMYSEIPEIIHMTEGRELVIPCRVTSPNITVTLKKFPLDTLIPDGKRIIWDSRKGFIISNATYKEIGLLTCEATVNGHLYKTNYLTHRQTNTIIDVVLSPSHGIELSVGEKLVLNCTARTELNVGIDFNWEYPSSKHQHKKLVNRDLKTQSGSEMKKFLSTLTIDGVTRSDQGLYTCAASSGLMTKKNSTFVRVHEKDKTHTCPPC
notes: Secreted from CHO K1 cells; Covalent dimer of about 64 kDa
B2: cleaved VEGF mini-trap (receptor)
chain: SDTGRPFVEMYSEIPEIIHMTEGRELVIPCRVTSPNITVTLKKFPLDTLIPDGKRIIWDSRKGFIISNATYKEIGLLTCEATVNGHLYKTNYLTHRQTNTIIDVVLSPSHGIELSVGEKLVLNCTARTELNVGIDFNWEYPSSKHQHKKLVNRDLKTQSGSEMKKFLSTLTIDGVTRSDQGLYTCAASSGLMTKKNSTFVRVHEKDKTHTCPPCLVPRGS
notes: Product of thrombin digestion of the uncleaved VEGF trap; also called thrombin-cleaved dimeric VEGF mini-trap; truncated trap
B3: uncleaved VEGF trap containing a thrombin cleavage site (Fc fusion)
chain: SDTGRPFVEMYSEIPEIIHMTEGRELVIPCRVTSPNITVTLKKFPLDTLIPDGKRIIWDSRKGFIISNATYKEIGLLTCEATVNGHLYKTNYLTHRQTNTIIDVVLSPSHGIELSVGEKLVLNCTARTELNVGIDFNWEYPSSKHQHKKLVNRDLKTQSGSEMKKFLSTLTIDGVTRSDQGLYTCAASSGLMTKKNSTFVRVHEKDKTHTCPPCLVPRGSPAPELLGGPSVFLFPPKPKDTLMISRTPEVTCVVVDVSHEDPEVKFNWYVDGVEVHNAKTKPREEQYNSTYRVVSVLTVLHQDWLNGKEYKCKVSNKALPAPIEKTISKAKGQPREPQVYTLPPSRDELTKNQVSLTCLVKGFYPSDIAVEWESNGQPENNYKTTPPVLDSDGSFFLYSKLTVDKSRWQQGNVFSCSVMHEALHNHYTQKSLSLSPGK
B4: recombinant monomeric R1R2-myc myc his (receptor)
chain: SDTGRPFVEMYSEIPEIIHMTEGRELVIPCRVTSPNITVTLKKFPLDTLIPDGKRIIWDSRKGFIISNATYKEIGLLTCEATVNGHLYKTNYLTHRQTNTIIDVVLSPSHGIELSVGEKLVLNCTARTELNVGIDFNWEYPSSKHQHKKLVNRDLKTQSGSEMKKFLSTLTIDGVTRSDQGLYTCAASSGLMTKKNSTFVRVHEK
modifications: C-terminal myc-myc-his tag is not in the letters.
notes: Monomer; The construct is named only, not described; also called R1R2-myc myc his monomer; not shown: myc-myc-his tag and any linker to it

Experiments:
[1] = target: T1, human VEGF165 (human, UniProt P15692-4 27-191); test: affinity determination for human VEGF-165 (method not named in Example 7); second row for SEQ ID NO: 26
T1 construct: also called hVEGF165

[2] = target: T1, human VEGF165; test: affinity determination for human VEGF-165 (method not named in Example 7)
[3] = target: T1, human VEGF165; test: half-life of dissociation of the trap-hVEGF165 complex, as described in WO/0075319
[4] = target: T1, human VEGF165; test: kinetic dissociation from hVEGF165, as described in WO/0075319
[5] = target: T1, human VEGF165

T1 sequence (P15692 other isoform, or with tags, fused parts or gaps limits assumed): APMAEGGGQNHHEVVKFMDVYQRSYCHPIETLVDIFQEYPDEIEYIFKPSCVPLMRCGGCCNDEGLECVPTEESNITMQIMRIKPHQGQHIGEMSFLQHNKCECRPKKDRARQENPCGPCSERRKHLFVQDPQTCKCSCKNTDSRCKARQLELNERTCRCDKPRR

Binder | Kd [1] | koff [1] | kon [1] | Kd [2] | koff [2] | kon [2] | T1/2 [3] | koff [4] | Kd [5]
B1 | 0.221 pM | 5.77e-06 s⁻¹ | 2.61e+07 M⁻¹ s⁻¹ | 0.328 pM | 6.56e-06 s⁻¹ | 2e+07 M⁻¹ s⁻¹ |  |  | 
B2 |  |  |  |  |  |  | 3.53 h | 5.46e-05 s⁻¹ | 
B3 |  |  |  |  |  |  | 3.9 h | 4.93e-05 s⁻¹ | 
B4 |  |  |  |  |  |  | 0.028 h | 0.00674 s⁻¹ | ~1000 pM
